Results as given in PMC9304055, “Biochemical analysis of novel NAA10 variants suggests distinct pathogenic mechanisms involving impaired protein N-terminal acetylation” (Human Genetics, 2022).

Target: T1, NAA10 A6P-V5 (human, UniProt P41227-1 1-235, A6P)
T1 construct: NAA10, human, patient variant c.16G>C p.(A6P), made by site-directed mutagenesis of pcDNA3.1/NAA10-WT-V5; Same construct as m1 with the variant found in a patient; also called NAA10 p.(A6P); c.16G>C p.(Ala6Pro); source: HeLa, transfected, in lysate
T1 sequence (looked up): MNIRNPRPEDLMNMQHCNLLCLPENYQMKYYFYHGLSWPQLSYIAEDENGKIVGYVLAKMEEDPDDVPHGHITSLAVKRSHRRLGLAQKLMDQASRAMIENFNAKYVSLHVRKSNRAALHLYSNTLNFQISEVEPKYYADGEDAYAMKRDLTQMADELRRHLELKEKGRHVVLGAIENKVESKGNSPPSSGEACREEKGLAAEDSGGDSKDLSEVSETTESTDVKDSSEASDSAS
Test: co-IP; anti-V5 immunoprecipitation (Dynabeads Protein G) of NAA10-V5 from lysates of transfected HeLa cells; lysis buffer 50 mM Tris-HCl pH 8.0, 150 mM NaCl, 5 mM EDTA, 0.5% NP-40, 4 °C; co-precipitated NAA15 detected by Western blot
Settings: partners not purified

fold less NAA15 co-immunoprecipitated than with NAA10 WT-V5: 5 fold
B1: NAA15 (natural protein, human (endogenous in HeLa), UniProt Q9BXJ9 1-866, looked up)
chain: MPAVSLPPKENALFKRILRCYEHKQYRNGLKFCKQILSNPKFAEHGETLAMKGLTLNCLGKKEEAYELVRRGLRNDLKSHVCWHVYGLLQRSDKKYDEAIKCYRNALKWDKDNLQILRDLSLLQIQMRDLEGYRETRYQLLQLRPAQRASWIGYAIAYHLLEDYEMAAKILEEFRKTQQTSPDKVDYEYSELLLYQNQVLREAGLYREALEHLCTYEKQICDKLAVEETKGELLLQLCRLEDAADVYRGLQERNPENWAYYKGLEKALKPANMLERLKIYEEAWTKYPRGLVPRRLPLNFLSGEKFKECLDKFLRMNFSKGCPPVFNTLRSLYKDKEKVAIIEELVVGYETSLKSCRLFNPNDDGKEEPPTTLLWVQYYLAQHYDKIGQPSIALEYINTAIESTPTLIELFLVKAKIYKHAGNIKEAARWMDEAQALDTADRFINSKCAKYMLKANLIKEAEEMCSKFTREGTSAVENLNEMQCMWFQTECAQAYKAMNKFGEALKKCHEIERHFIEITDDQFDFHTYCMRKITLRSYVDLLKLEDVLRQHPFYFKAARIAIEIYLKLHDNPLTDENKEHEADTANMSDKELKKLRNKQRRAQKKAQIEEEKKNAEKEKQQRNQKKKKDDDDEEIGGPKEELIPEKLAKVETPLEEAIKFLTPLKNLVKNKIETHLFAFEIYFRKEKFLLMLQSVKRAFAIDSSHPWLHECMIRLFNTAVCESKDLSDTVRTVLKQEMNRLFGATNPKNFNETFLKRNSDSLPHRLSAAKMVYYLDPSSQKRAIELATTLDESLTNRNLQTCMEVLEALYDGSLGDCKEAAEIYRANCHKLFPYALAFMPPGYEEDMKITVNGDSSAEAEELANEI
notes: NAA15, large auxiliary subunit of the NatA complex, endogenous in HeLa cells, detected with NAA15 rabbit polyclonal antibody (previously called anti-NATH); also called auxiliary subunit of NatA; NATH; source: endogenous, HeLa lysate
